Experimental findings from patent publication US20240239891A1 (Stanford University, published 2024) are described below.

In one experiment the target is T1, mRNF43 ECD.
T1 construct: The mouse half of m18, which leaves the species open; also called extracellular domain of mouse RNF43
T1 chain: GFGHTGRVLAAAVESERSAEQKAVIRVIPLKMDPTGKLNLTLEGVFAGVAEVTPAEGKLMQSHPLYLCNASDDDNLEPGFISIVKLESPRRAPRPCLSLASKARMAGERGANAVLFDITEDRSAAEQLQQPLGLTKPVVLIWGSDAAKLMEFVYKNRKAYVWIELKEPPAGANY
As to the kind of experiment: SPR (Biacore), ligand mRNF43 ECD, analyte RNF43 -A4.

Experiment [1] has as its target T2, extracellular domain (ECD) of human or mouse RNF43 (human or mouse).
T2 construct: extracellular domain; also called RNF43 ECD
As to the kind of experiment: SPR (Biacore), nanobody on ECD. On the technique in general: SPR reads the build-up and loss of mass on a sensor chip optically.

For experiment [2], the target named is T3, extracellular domain (ECD) of human GODZILLA (RNF167) (human, UniProt Q9H6Y7 25-173, limits assumed).
T3 construct: extracellular domain; also called GODZILLA ECD
The experiment is described as follows: SPR (Biacore), titration at equilibrium, nanobody on ECD.

Experiment [3] deals with T4, extracellular domain (ECD) of human GRAIL (RNF128) (human, UniProt Q8TEB7 39-207, limits assumed).
T4 construct: extracellular domain; also called GRAIL ECD
T4 sequence (looked up): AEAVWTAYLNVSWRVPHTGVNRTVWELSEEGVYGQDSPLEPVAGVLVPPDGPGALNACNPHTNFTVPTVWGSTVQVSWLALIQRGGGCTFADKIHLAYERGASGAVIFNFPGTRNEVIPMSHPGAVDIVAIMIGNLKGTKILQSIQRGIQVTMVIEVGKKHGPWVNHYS
As to the kind of experiment: SPR (Biacore), ligand hRNF128 ECD (GRAIL), analyte GODZILLA-A5 [CONT. 3].

Experiment [4] deals with GODZILLA (RNF167) on Ba/F3 cells (mouse, UniProt Q91XF4). As to the kind of experiment: flow cytometry, surface staining of Ba/F3 cells (mouse by legend paragraph 54, sheet prints HUMAN) with streptavidin-APC tetramerized nanobody, titration up to 200 nM; control BIOTIN. On the technique in general: Flow cytometry measures light scatter and fluorescence of single cells or particles in a stream.

For orientation: Kd means the constant that tells how readily two partners part at equilibrium.

B1: RNF43 VHH of SEQ ID NO: 10 (VHH)
VHH: QVQLQESGGGLVQAGGSLRLSCAASGTIFDDLLMGWYRQAPGKERELVAAIGAGATTNYADSVKGRFTISRDNAKNTVYLQMNSLKPEDTAVYYCAAWWLYYKGDWALYLYWGQGTQVTVSS
notes: also called RNF43 nanobody
B1: the binding result in the experiment with mRNF43 ECD is reported as “no binding (tested: highest concentration not legible)”. Moreover, the dissociation constant Kd in experiment [1] amounted to 315 nM.

B2: GODZILLA (RNF167) VHH of SEQ ID NO: 9 (VHH)
VHH: QVQLQESGGGLVQAGGSLRLSCAASGSIFRLWYMGWYRQAPGKEREFVASIGIGATTNYADSVKGRFTISRDNAKNTVYLQMNSLKPEDTAVYYCAVFGWAYSGYHDDFLYWGQGTQVTVSS
notes: also called A5; GODZILLA-A5
In experiment [2], B2 showed a dissociation constant Kd of 3 nM. For the same molecule, the values for the binding result in experiment [3] and in experiment [4] were “no binding (tested: 1000 (unit not printed))” and “binds”, respectively.
